Experimental findings from patent publication US20100081612A1 (GENERAL HOSPITAL, published 2010) are described below.

The target in test [1] is PTHR-delNt (human) (UniProt Q03431). Briefly: competition binding, COS-7 membranes, 125I-[Aib1,3,M]PTH(1-15) tracer.
Test [2] deals with T1, wild-type human PTHR (human, UniProt Q03431 27-593).
T1 sequence (looked up): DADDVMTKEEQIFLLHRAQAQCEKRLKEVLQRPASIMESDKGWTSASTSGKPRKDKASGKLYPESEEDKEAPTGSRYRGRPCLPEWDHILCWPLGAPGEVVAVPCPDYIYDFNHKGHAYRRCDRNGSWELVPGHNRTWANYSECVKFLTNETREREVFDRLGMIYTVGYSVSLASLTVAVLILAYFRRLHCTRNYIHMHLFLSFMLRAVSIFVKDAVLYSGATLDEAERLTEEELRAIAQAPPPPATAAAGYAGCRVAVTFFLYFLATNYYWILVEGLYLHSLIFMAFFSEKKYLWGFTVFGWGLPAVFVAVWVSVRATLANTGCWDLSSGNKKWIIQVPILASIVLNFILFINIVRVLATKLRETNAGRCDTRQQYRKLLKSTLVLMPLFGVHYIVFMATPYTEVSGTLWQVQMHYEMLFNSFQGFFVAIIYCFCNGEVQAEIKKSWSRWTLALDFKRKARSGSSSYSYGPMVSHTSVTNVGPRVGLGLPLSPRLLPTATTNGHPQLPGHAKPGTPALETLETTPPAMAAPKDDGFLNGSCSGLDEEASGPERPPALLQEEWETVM
Description: competition binding, HKRK-B7 cells, 125I-PTH(1-34) tracer.

Test [3] deals with PTHR-delNt (human) (UniProt Q03431). Description: competition binding, COS-7 membranes, 125I-[Aib1,3,M]PTH(1-15) tracer. This is another data set of the same source.
Test [4] deals with T1, wild-type human PTHR. Description: competition binding, HKRK-B7 cells, 125I-PTH(1-34) tracer. The method in brief: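 Intact HKRK-B7 cells stably expressing hPTHR incubated 4 h at 15° C with ¹²⁵I-PTH(1-34) tracer and unlabeled peptide (3×10⁻⁹ to 1×10⁻⁵ M). Nonspecific binding defined with 1×10⁻⁶ M PTH(1-31)NH₂. Bound activity counted after lysis and expressed as % specific binding without competitor; values in nM, mean ± s.e.m.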

In test [5] the target is T2, rat PTHR endogenously expressed in ROS 17/2.8 cells (rat, UniProt P25961 27-591).
T2 construct: whole, on cells; also called endogenous PTHR; PTHR in ROS 17/2.8 cells
T2 sequence (looked up): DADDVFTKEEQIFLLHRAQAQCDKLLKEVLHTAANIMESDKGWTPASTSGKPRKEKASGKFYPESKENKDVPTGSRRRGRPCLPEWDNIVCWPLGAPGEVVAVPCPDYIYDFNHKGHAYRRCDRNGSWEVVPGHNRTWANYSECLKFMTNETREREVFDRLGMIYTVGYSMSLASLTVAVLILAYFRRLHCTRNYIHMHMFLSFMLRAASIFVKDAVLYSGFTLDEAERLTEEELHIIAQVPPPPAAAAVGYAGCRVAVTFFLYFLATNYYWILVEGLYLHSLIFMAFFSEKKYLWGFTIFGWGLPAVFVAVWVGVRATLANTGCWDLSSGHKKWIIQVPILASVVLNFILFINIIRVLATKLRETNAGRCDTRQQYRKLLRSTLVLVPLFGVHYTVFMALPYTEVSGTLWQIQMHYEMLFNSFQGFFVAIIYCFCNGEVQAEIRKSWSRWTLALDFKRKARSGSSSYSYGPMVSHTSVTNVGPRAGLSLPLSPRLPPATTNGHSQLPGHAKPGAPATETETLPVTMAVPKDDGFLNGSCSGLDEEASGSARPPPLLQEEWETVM
Description: competition binding, ROS 17/2.8 cells, 125I-PTH(1-34) tracer. The protocol: Receptor binding—Binding to the wild-type human PTHR in intact HKRK-B7 cells and ROS 17/2.8 cells was assessed using ¹²⁵I-PTH(1-34) as a tracer radioligand, as described (Shimizu, M., (2001) Endocrinology 142:3068-3074). In brief, the cells in 24-well plates (about 500,000 cells per well) were incubated in binding buffer containing radioligand (about 100,000 cpm per well) with or without unlabeled peptide ligand (3×10⁻⁹ to 1×10⁻⁵ M) for four hours at 15° C. The binding mixture was then removed by aspiration, the cells were rinsed three times with binding buffer, lysed in 1 M NaOH, and the entire lysate was counted for gamma-irradiation in a gamma counter. Binding to PTHR-delNt in COS-7 cell membranes was assessed in 96-well, vacuum filtration plates (Multiscreen-Durapore HV, […], Millipore Corp., Millford, Mass.) using ¹²⁵I-[Aib^{1,3},M]PTH(1-15)NH₂ as a tracer radioligand, as described (Dean, T., (2006) Mol Endocrinol 20:931-942). In brief, cell membranes (20 μg/well) were incubated in membrane binding buffer containing radioligand (30,000 cpm/well) with or without unlabeled peptide ligand (3×10⁻⁹ to 1×10⁻⁵ M) for 90 minutes at 21° C. The plates were then subject to rapid vacuum filtration, the filters were washed once with buffer, detached from the plate and counted for gamma-irradiation in a gamma counter. Non-specific binding was defined as the binding observed in the presence of 1×10⁻⁶ M PTH(1-31)NH₂ for HKRK-B7 and ROS 17/2.8 cells, and 1×10⁻⁶ M [Aib^{1,3},M]PTH(1-15)NH₂ for PTHR-delNt. Specifically bound radioactivity was calculated as a percentage of the radioactivity specifically bound in the absence of competing ligand.
Effects on cAMP and IP signaling—Selected analogs of [Ala¹,Arg¹⁹]hPTH(1-31)NH₂ with substitutions that markedly impaired binding to HKRK-B7 cells were assessed for their capacity to bind to the PTHR in ROS 17/2.8 cells and to stimulate cAMP-signaling responses in these cells. These bone-derived cells endogenously express the rat PTHR at a more physiological level than is found in HKRK-B7 cells (approximately 80,000 PTHRs per cell vs. 950,000 PTHRs per cell) and, have generally been found (data not shown) to yield closer correlations between PTH analog binding affinity and cAMP-signaling potency than do HKRK-B7 cells, presumably due to their lower PTHR expression level.

Test [6] deals with T2, rat PTHR endogenously expressed in ROS …. Briefly: cell-based or functional assay.
Test [7] has as its target T1, wild-type human PTHR. Description: competition binding, HKRK-B7 cells, 125I-PTH(1-34) tracer. The source holds these as a separate data set.

Read-outs that look alike come from different tables or passages of the source. Where no end group is shown, it is not given here. [ ]: non-standard residue; d: D form. Apa = (S)-2-amino-4[(2-amino)pyrimidinyl]methylalanine; Phe(4-guanidino) = N=C(N)Nc1ccc(C[C@H](N)C(=O)O)cc1; Cha = N[C@@H](CC1CCCCC1)C(=O)O; Orn = NCCC[C@H](N)C(=O)O

B1: PTH(1-31)NH2 Arg^20→Orn (peptide)
peptide: SVSEIQLMHNLGKHLNSME[Orn]VEWLRKKLQDV-NH2
modifications: N-terminus assumed
SMILES: CC[C@H](C)[C@H](NC(=O)[C@H](CCC(=O)O)NC(=O)[C@H](CO)NC(=O)[C@@H](NC(=O)[C@@H](N)CO)C(C)C)C(=O)N[C@@H](CCC(N)=O)C(=O)N[C@@H](CC(C)C)C(=O)N[C@@H](CCSC)C(=O)N[C@@H](Cc1c[nH]cn1)C(=O)N[C@@H](CC(N)=O)C(=O)N[C@@H](CC(C)C)C(=O)NCC(=O)N[C@@H](CCCCN)C(=O)N[C@@H](Cc1c[nH]cn1)C(=O)N[C@@H](CC(C)C)C(=O)N[C@@H](CC(N)=O)C(=O)N[C@@H](CO)C(=O)N[C@@H](CCSC)C(=O)N[C@@H](CCC(=O)O)C(=O)N[C@@H](CCCN)C(=O)N[C@H](C(=O)N[C@@H](CCC(=O)O)C(=O)N[C@@H](Cc1c[nH]c2ccccc12)C(=O)N[C@@H](CC(C)C)C(=O)N[C@@H](CCCNC(=N)N)C(=O)N[C@@H](CCCCN)C(=O)N[C@@H](CCCCN)C(=O)N[C@@H](CC(C)C)C(=O)N[C@@H](CCC(N)=O)C(=O)N[C@@H](CC(=O)O)C(=O)N[C@H](C(N)=O)C(C)C)C(C)C
As a reminder, the IC50 is the point on the concentration scale where inhibition reaches its midpoint. In test [1], B1 showed an IC50 of 5.53 µM and a fold difference of IC50 from PTH(1-31)NH2 of under 4 fold. The IC50 in test [2] is over 10 µM.
On to SVSEIQLMHNLGKHLNSME[Apa]VEWLRKKLQDV-NH2 [PTH(1-31)NH2 Arg^20→Apa], for which, in test [1], the IC50 stood at 5.74 µM and the fold difference of IC50 from PTH(1-31)NH2 was under 4 fold. Besides, the IC50 in test [2] is over 10 µM.
Consider AVSEIQLMHNLGKHLNSMERVEWLRKKLQDV-NH2 [[Ala^1,Arg^19]hPTH(1-31)NH2 Arg^19→Glu], for which the fold reduction in binding affinity vs [Ala^1,Arg^19]PTH(1-31)NH2 in test [3] is 90 fold; in test [1] it was 50 fold. In addition, the 50% inhibitory concentration (IC50) in test [1] is 18.9 µM; in test [4], 0.125 µM.

B2: PTH(1-31)NH2 Arg^20→Gph (peptide)
peptide: SVSEIQLMHNLGKHLNSME[Phe(4-guanidino)]VEWLRKKLQDV-NH2
modifications: N-terminus assumed
SMILES: CC[C@H](C)[C@H](NC(=O)[C@H](CCC(=O)O)NC(=O)[C@H](CO)NC(=O)[C@@H](NC(=O)[C@@H](N)CO)C(C)C)C(=O)N[C@@H](CCC(N)=O)C(=O)N[C@@H](CC(C)C)C(=O)N[C@@H](CCSC)C(=O)N[C@@H](Cc1c[nH]cn1)C(=O)N[C@@H](CC(N)=O)C(=O)N[C@@H](CC(C)C)C(=O)NCC(=O)N[C@@H](CCCCN)C(=O)N[C@@H](Cc1c[nH]cn1)C(=O)N[C@@H](CC(C)C)C(=O)N[C@@H](CC(N)=O)C(=O)N[C@@H](CO)C(=O)N[C@@H](CCSC)C(=O)N[C@@H](CCC(=O)O)C(=O)N[C@@H](Cc1ccc(NC(=N)N)cc1)C(=O)N[C@H](C(=O)N[C@@H](CCC(=O)O)C(=O)N[C@@H](Cc1c[nH]c2ccccc12)C(=O)N[C@@H](CC(C)C)C(=O)N[C@@H](CCCNC(=N)N)C(=O)N[C@@H](CCCCN)C(=O)N[C@@H](CCCCN)C(=O)N[C@@H](CC(C)C)C(=O)N[C@@H](CCC(N)=O)C(=O)N[C@@H](CC(=O)O)C(=O)N[C@H](C(N)=O)C(C)C)C(C)C
Turning to B2, in test [1], the concentration for half-maximal inhibition (IC50) stood at 2.05 µM and the fold difference of IC50 from PTH(1-31)NH2 is under 4 fold. The IC50 in test [2] is over 10 µM.

B3: [Ala^1,Arg^19]hPTH(1-31)NH2 Leu^24→Cha (peptide)
peptide: AVSEIQLMHNLGKHLNSMRRVEW[Cha]RKKLQDV-NH2
modifications: N-terminus assumed
SMILES: CC[C@H](C)[C@H](NC(=O)[C@H](CCC(=O)O)NC(=O)[C@H](CO)NC(=O)[C@@H](NC(=O)[C@H](C)N)C(C)C)C(=O)N[C@@H](CCC(N)=O)C(=O)N[C@@H](CC(C)C)C(=O)N[C@@H](CCSC)C(=O)N[C@@H](Cc1c[nH]cn1)C(=O)N[C@@H](CC(N)=O)C(=O)N[C@@H](CC(C)C)C(=O)NCC(=O)N[C@@H](CCCCN)C(=O)N[C@@H](Cc1c[nH]cn1)C(=O)N[C@@H](CC(C)C)C(=O)N[C@@H](CC(N)=O)C(=O)N[C@@H](CO)C(=O)N[C@@H](CCSC)C(=O)N[C@@H](CCCNC(=N)N)C(=O)N[C@@H](CCCNC(=N)N)C(=O)N[C@H](C(=O)N[C@@H](CCC(=O)O)C(=O)N[C@@H](Cc1c[nH]c2ccccc12)C(=O)N[C@@H](CC1CCCCC1)C(=O)N[C@@H](CCCNC(=N)N)C(=O)N[C@@H](CCCCN)C(=O)N[C@@H](CCCCN)C(=O)N[C@@H](CC(C)C)C(=O)N[C@@H](CCC(N)=O)C(=O)N[C@@H](CC(=O)O)C(=O)N[C@H](C(N)=O)C(C)C)C(C)C
Turning to B3, in test [5], the IC50 was determined as 0.0073 µM. In test [1], this molecule gave an IC50 of 0.283 µM and a fold change in binding affinity vs [Ala^1,Arg^19]PTH(1-31)NH2 of under 3 fold. Further, the “cAMP EC50, ROS 17/2.8 cells” value in test [6] came to 0.00083 µM. The molecule further gave a 50% inhibitory concentration (IC50) in test [4] of 0.436 µM. Moreover, in test [7], the “fold reduction in binding affinity vs [Ala^1,Arg^19]PTH(1-31)NH2” value is 11 fold and the “fold reduction in binding vs [Ala^1,Arg^19]PTH(1-31)NH2” value is about 12 fold.
